Where “and” joins values, the source holds several entries; their conditions need not be identical. Identical values can stand only once. No end group written: not given here.
T1: mouse GPCR142 (mouse, UniProt Q7TQP4 1-414)
T1 sequence: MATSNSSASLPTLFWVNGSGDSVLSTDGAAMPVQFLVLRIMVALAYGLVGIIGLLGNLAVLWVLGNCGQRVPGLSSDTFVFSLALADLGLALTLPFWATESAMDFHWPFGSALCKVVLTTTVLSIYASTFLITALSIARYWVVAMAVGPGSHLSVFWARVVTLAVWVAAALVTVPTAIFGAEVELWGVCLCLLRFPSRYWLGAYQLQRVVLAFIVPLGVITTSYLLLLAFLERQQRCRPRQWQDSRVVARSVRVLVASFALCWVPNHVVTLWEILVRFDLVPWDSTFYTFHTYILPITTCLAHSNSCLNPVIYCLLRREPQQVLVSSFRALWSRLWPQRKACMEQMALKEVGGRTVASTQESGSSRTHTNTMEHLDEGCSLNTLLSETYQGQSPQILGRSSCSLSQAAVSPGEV

T2: porcine GPCR142 (porcine)
T2 chain: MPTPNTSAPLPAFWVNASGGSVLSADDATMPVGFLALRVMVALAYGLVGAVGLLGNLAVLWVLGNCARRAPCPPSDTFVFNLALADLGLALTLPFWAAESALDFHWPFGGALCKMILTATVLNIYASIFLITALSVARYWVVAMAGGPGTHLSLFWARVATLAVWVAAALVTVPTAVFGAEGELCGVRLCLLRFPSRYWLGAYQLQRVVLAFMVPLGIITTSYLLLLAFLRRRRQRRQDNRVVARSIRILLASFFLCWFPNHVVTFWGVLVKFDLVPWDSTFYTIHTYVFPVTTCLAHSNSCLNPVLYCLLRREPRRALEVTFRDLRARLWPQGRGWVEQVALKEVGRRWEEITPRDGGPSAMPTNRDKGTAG

T3: monkey GPCR142 (monkey (Macaca Nemestrina), UniProt Q8TDU9 1-374 (human entry))
T3 chain: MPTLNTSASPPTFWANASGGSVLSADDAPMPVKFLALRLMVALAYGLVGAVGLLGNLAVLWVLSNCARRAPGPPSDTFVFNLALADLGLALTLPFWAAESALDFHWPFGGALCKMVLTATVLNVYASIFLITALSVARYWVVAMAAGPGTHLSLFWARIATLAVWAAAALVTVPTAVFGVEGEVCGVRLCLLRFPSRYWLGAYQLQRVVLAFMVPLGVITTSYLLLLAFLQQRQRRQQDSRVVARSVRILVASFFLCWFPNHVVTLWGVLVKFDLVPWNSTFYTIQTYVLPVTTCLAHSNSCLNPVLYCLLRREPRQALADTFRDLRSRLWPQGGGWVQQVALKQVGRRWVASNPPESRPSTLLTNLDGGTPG

T4: bovine GPCR142 (bovine)
T4 chain: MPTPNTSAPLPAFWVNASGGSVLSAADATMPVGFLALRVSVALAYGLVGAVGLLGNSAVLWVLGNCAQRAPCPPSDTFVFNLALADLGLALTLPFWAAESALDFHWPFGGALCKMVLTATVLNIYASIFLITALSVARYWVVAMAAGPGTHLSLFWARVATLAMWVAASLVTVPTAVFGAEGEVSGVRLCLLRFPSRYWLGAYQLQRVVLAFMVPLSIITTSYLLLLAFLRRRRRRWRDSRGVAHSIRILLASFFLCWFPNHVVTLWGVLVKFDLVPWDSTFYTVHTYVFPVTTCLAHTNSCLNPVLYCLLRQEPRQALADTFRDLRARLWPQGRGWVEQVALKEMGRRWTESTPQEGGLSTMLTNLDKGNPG

T5: human GPCR135 (human, UniProt Q9NSD7 1-469)
T5 construct: Expressed in COS-7, CHO, SK-N-MC or HEK293 cells
T5 sequence: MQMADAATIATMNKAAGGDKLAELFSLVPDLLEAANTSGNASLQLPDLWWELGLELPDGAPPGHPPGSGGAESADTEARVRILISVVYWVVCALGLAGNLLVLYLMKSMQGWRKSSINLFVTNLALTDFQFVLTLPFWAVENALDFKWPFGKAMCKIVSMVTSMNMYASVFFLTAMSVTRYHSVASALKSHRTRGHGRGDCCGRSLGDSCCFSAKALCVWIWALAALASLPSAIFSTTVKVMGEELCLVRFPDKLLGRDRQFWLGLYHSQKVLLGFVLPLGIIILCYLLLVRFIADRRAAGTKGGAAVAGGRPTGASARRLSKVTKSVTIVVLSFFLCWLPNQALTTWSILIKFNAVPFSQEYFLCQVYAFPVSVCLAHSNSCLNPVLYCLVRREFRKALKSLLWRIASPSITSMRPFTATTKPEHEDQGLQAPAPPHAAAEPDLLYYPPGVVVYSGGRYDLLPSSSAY


What was measured:
human GPCR142 [1] = biological target: T6, human GPCR142 (human, UniProt Q8TDU9 1-374); test: radioligand binding assays
T6 construct: Expressed in COS-7, CHO, SK-N-MC or HEK293 cells

mouse GPCR142 [2] = biological target: T1, mouse GPCR142; test: cell-based or functional assay
porcine GPCR142 [3] = biological target: T2, porcine GPCR142; test: cell-based or functional assay
human GPCR142 [4] = biological target: T6, human GPCR142; test: cell-based or functional assay
monkey GPCR142 [5] = biological target: T3, monkey GPCR142; test: cell-based or functional assay
bovine GPCR142 [6] = biological target: T4, bovine GPCR142; test: cell-based or functional assay
[7] = biological target: Monkey, bovine, and porcine GPCR142; test: cell-based or functional assay
human GPCR142 [8] = biological target: T6, human GPCR142; test: competition binding with ^125I-relaxin3, membranes of COS-7 cells transiently expressing GPCR142
Description: (§1) The binding mixtures were incubated at room temperature for 1 h and then were filtered through 96-well GFC plates (Packard) and washed with ice-cold washing buffer: 50 mM Tris-HCl, pH 7.4. Fifty microliters of Microscint-40 were added to each well and the plates were counted in a Topcounter NTX (Packard).

mouse GPCR142 [9] = biological target: T1, mouse GPCR142; test: radioligand competition binding, recombinant receptor in transfected COS-7 cells
Description: (§2) Competition binding experiments were performed to compare the ligand binding properties for recombinant monkey, mouse, bovine, and porcine GPCR142 versus that of the human GPCR142. […] The GPCR142 receptors from different species were also compared in GTPγS binding and Ca²⁺ mobilization assays.
as §1

porcine GPCR142 [10] = biological target: T2, porcine GPCR142; test: as above
Description: as §2, §1

human GPCR142 [11] = biological target: T6, human GPCR142; test: as above
Description: as §2, §1

monkey GPCR142 [12] = biological target: T3, monkey GPCR142; test: as above
Description: as §2, §1

bovine GPCR142 [13] = biological target: T4, bovine GPCR142; test: as above
Description: as §2, §1

human GPCR135 = biological target: T5, human GPCR135; test: competition binding with 100 pM ^125I-relaxin3, membranes of COS-7 cells expressing human GPCR135
Description: The binding assays were performed at room temperature for an incubation time of one hour. The binding mixtures were then filtered through GFC filters pre-saturated with 0.3 polyethylenimine (Sigma) and washed with cold binding buffer. […] The results were analyzed by Prism 3.0 software.

T6 sequence (Q8TDU9 whole entry L329S): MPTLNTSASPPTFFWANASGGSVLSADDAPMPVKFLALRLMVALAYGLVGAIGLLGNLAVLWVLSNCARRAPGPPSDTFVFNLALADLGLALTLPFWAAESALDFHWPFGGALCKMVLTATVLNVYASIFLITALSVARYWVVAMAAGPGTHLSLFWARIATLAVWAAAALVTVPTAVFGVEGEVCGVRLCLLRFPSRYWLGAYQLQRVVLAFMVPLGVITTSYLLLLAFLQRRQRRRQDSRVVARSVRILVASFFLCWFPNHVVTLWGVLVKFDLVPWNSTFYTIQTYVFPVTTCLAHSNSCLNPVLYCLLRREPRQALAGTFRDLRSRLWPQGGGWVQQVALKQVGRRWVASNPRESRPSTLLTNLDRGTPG

Binder	Kd and Ki values (human GPCR142 [1])	EC50, GTPγS binding assay (mouse GPCR142 [2])	EC50, GTPγS binding assay (porcine GPCR142 [3])	EC50, Ca^2+ mobilization with Gα16 (human GPCR142 [4])	EC50, GTPγS binding assay (human GPCR142 [4])	EC50, inhibition of forskolin-stimulated β-gal activity (cAMP reporter) (human GPCR142 [4])	EC50, GTPγS binding assay (monkey GPCR142 [5])	EC50, GTPγS binding assay (bovine GPCR142 [6])	EC50, Ca^2+ mobilization with Gα16 [7]	Ki (human GPCR142 [8])	IC50 (mouse GPCR142 [9])	IC50 (porcine GPCR142 [10])	IC50 (human GPCR142 [11])	IC50 (monkey GPCR142 [12])	IC50 (bovine GPCR142 [13])	binding result (human GPCR135)
human relaxin3 (ligand, disulfide (positions not given here); also: A- and B-chains linked by disulfide bridges, places not given here, also called unlabeled relaxin3; human recombinant relaxin3) chain 1: RAAPYGVRLCGREFIRAVIFTCGGSRW chain 2: DVLAGLSSSCCKWGCSKSEISSLC	1 to 2 nM	3.5 nM	0.96 nM	~50 nM	0.93 nM and 0.98 nM	0.85 nM	1.1 nM	0.45 nM	50 to 100 nM	1.2 nM	5.45 nM	1.59 nM	1.45 nM	1.34 nM	0.87 nM	–
human recombinant INSL5 (ligand, ends and bridges not checked; cysteine pairing not given here, Recombinant peptide from COS-7 cells co-transfected with furin; also called unlabeled INSL5; human INSL5) chain 1: KESVRLCGLEYIRTVIYICASSRW chain 2: QDLQTLCCTDGCSMTDLSALC	–	–	–	–	–	–	–	–	–	–	–	–	–	–	–	no binding
